Reference: patent EP4674869A1 (Immuneoncia Therapeutics, Inc., dated 2026)

Assays:
CD47 [1] = target: T1, CD47 (UniProt Q08722 19-323, limits assumed); assay: binding to MDA-MB-231 cancer cells; method not stated
T1 construct: whole, on cells; also called CD47 on cancer cells (MDA-MB-231, Raji)

CD47 [2] = target: T1, CD47; assay: binding to Raji cancer cells; method not stated

T1 sequence (Q08722 19-323 limits assumed): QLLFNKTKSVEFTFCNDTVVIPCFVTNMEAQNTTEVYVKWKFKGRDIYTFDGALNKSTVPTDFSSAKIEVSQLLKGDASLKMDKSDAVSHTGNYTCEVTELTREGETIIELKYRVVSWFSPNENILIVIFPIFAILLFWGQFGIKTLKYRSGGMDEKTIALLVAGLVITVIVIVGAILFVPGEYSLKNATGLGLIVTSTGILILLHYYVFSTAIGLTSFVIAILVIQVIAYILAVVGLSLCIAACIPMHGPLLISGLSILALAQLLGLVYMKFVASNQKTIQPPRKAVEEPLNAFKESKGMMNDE

B1: IMC-002 (antibody, human IgG4 S228P, lambda, V domains shown)
VH: QVQLVQSGAEVKKPGASVKVSCKASGYTFTSYYMHWVRQAPGQGLEWMGIINPSGGSTSYAQKFQGRVTMTRDTSTSTVYMELSSLRSEDTAVYYCARSTLWVSEFDYWGQGTLVTVSS
VL: QSALTQPASVSGSPGQSISISCTGTSSDVGGHNYVSWYQQHPGKAPKLMIYDVRNRPSGVSNRFSGSKSGSTASLTISGLQTEDEADYYCNSYTGSRTYVFGSGTKLTVLG
notes: Fully human IgG4 kappa antibody with an S228P hinge mutation; also called anti-CD47 antibody; C47B10-H3-D4
EC50 (CD47 [1]): 5.73 µg/mL | EC50 (CD47 [2]): 4.77 µg/mL
